Experimental data from article PMC5658772 (Emerging Microbes & Infections, 2017).

B1: m301 IgG1 (antibody, V domains shown)
VH: EVQLVQSGGGLVKPGGSLRLSCAASGFTFSSYGMHWVRQAPGKGLEWVAVISYDGSNKYYADSVKGRFTISRDNSKNTLYLQMNSLRAEDTAVYYCAKEVGRSYFDYWGQGTLVTVSS
VL: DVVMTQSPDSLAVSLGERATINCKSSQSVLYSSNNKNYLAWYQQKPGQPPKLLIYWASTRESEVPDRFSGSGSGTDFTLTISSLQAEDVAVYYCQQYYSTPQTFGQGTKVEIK
notes: also called m301 mAb; IgG m301; source: Expi293, transient, purified (protein G)
B2: m302 IgG1 (antibody, V domains shown)
VH: EVQLVQSGGGLVKPGRSLRLSCAASGFTFSSYAMHWVRQAPGKGLEWVAVISYDGSNKYYADSVKGRFTISRDNSKNTLYLQMNSLRAEDTAVYYCAREIGDYYYYGMDVWGQGTLVTVSS
VL: EIVMTQSPATLSLSPGERATLSCRASQSVSSYLAWYQQKPGQAPRLLIYDASNRATGIPARFSGSGSGTDFTLTISSLQPEDFATYYCQQSYSTPLTFGGGTKVEIK
notes: also called m302 mAb; IgG m302; source: Expi293, transient, purified (protein G)

Target: T1, ZIKV envelope protein domain III-hFc fusion protein (ZIKV-DIII-hFc) (Zika virus strain MR766, UniProt Q32ZE1)
T1 construct: source: 293 FreeStyle, transient, purified from conditioned culture medium
Experiment: BLI; Octet-Red96, 37 °C; […] (30 μg/mL, sodium acetate pH 5.0) […]; association 300 s, dissociation 1500 s; 1:1 Langmuir model; […]
Details: both partners purified

| Binder | Kd [nM] | koff [s⁻¹] |
| --- | --- | --- |
| B1 | 0.2 | 4e-05 |
| B2 | 47 | 0.002 |
